Target: the molecule itself
Experiment: SDS-PAGE and Western blot of the purified protein; 1 ug purified histone on 16.5% Tris-Tricine SDS gels, Coomassie stain or Western blot with polyclonal anti-HTkA antibodies; dimers and higher-order species persist after extensive heating

B1: Thermococcus kodakarensis histone A protein (HTkA^WT) (natural protein)
chain: not shown
notes: Histone A (HTkA) of Thermococcus kodakarensis, encoded by TK1413 on plasmid pTS600; No tag is mentioned; purified by heparin and size exclusion; also called TK1413; recombinant HTkA; source: E. coli Rosetta 2 (DE3), purified (heat treatment, HiTrap Heparin, Sephacryl S-100)
B1: binds.
